Test results published in publication PMC2408616, “Modular Organization and Combinatorial Energetics of Proline–Tyrosine Nuclear Localization Signals” (PLoS Biology, 2008).

How the values were obtained:
Kap104p [1] = molecular target: Kap104p (UniProt P38217); experiment: ITC
Kap104p [2] = molecular target: T1, Kap104p (yeast (S. cerevisiae), UniProt P38217 1-918); experiment: ITC; 90–350 μM MBP-NLS titrated into 9–35 μM Kap104p in the cell; 20 °C; 20 mM Tris pH 7.5, 100 mM NaCl, 2 mM β-mercaptoethanol, 10% glycerol; 35 injections of 8 μl; single-site model; details: both partners purified
T1 construct: Kap104p, yeast homolog of Kapβ2; gene a gift from J. Aitchison, subcloned into pGEX-Tev; also called yeast Karyopherin β2 homolog; source: E. coli Rosetta(DE3)pLysS, purified (glutathione sepharose, TEV cleavage, anion exchange, gel filtration)
T1 sequence (looked up): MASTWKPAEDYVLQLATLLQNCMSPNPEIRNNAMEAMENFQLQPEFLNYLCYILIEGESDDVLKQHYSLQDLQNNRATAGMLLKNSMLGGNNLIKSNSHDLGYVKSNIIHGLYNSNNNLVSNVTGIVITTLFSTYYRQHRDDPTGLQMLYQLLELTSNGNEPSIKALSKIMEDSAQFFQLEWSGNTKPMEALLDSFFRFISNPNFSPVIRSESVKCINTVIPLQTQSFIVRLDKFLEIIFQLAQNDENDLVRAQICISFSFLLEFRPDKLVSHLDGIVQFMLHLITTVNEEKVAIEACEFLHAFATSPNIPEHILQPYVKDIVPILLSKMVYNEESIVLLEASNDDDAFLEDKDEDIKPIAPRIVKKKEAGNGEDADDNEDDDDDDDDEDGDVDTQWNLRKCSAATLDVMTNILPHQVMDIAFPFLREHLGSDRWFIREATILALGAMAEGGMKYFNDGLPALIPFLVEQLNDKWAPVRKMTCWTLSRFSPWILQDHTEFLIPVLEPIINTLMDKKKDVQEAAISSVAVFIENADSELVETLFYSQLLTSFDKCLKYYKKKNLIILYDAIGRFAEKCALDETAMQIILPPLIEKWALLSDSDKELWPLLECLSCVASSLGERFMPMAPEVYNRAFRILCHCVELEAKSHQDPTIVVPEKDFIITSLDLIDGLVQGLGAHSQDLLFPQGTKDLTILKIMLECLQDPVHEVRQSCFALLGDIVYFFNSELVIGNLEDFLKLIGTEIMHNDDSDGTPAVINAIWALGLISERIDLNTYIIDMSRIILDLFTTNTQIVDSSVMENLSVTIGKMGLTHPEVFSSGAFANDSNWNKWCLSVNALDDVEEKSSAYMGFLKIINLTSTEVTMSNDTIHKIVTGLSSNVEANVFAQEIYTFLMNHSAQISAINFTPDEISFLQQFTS

Kap104p, P38217 [3] = molecular target: T2, Kap104p, P38217; experiment: ITC; design: other: TΔS: unit not given here; details: for Kd / other: TΔS / dG / other: ΔH: chain shown with the change;; for Kd: parent: 37 ± 20; for ddG / ratio to parent: chain shown with the change; for other: TΔS: parent: -1.3 ± 0.6; for dG: parent: -10.0 ± 0.3; for other: ΔH: parent: -11.3 ± 0.5
T2 chain: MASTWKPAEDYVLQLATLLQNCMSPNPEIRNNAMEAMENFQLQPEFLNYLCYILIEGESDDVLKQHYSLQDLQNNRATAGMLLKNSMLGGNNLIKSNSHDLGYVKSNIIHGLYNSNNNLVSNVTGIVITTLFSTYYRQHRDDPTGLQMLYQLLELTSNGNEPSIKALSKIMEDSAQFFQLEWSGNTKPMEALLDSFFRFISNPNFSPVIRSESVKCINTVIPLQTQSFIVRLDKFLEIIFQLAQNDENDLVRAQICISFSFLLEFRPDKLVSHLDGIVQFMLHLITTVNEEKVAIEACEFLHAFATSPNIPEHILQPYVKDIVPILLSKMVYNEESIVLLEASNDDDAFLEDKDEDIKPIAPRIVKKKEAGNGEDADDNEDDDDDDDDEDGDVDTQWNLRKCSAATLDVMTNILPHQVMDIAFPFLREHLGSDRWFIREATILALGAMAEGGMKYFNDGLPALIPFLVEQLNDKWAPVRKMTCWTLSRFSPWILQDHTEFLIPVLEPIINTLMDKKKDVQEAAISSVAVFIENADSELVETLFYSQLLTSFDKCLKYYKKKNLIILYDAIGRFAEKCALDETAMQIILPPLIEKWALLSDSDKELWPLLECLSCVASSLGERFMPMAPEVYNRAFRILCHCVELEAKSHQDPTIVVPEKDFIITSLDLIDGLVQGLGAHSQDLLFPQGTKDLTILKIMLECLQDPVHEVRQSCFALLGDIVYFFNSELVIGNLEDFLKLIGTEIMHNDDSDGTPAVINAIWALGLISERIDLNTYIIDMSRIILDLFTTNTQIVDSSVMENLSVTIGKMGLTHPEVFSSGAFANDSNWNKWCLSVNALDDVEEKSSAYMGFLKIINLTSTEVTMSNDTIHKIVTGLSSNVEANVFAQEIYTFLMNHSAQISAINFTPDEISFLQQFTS

Kap104p [4] = molecular target: T1, Kap104p; experiment: pull-down; ~30 μg Kap104p added to ~10 μg GST protein immobilized on 20 μl glutathione sepharose; washes with TB buffer (20 mM HEPES pH 7.3, 110 mM KAc, 2 mM MgAc, 1 mM EGTA, 2 mM DTT, 20% glycerol); second incubation with buffer or RanGTP (5-fold molar excess); SDS-PAGE, Coomassie; details: both partners purified
Kap104p [5] = molecular target: T3, Kap104p (yeast (S. cerevisiae), UniProt P38217 1-918); experiment: ITC
T3 chain: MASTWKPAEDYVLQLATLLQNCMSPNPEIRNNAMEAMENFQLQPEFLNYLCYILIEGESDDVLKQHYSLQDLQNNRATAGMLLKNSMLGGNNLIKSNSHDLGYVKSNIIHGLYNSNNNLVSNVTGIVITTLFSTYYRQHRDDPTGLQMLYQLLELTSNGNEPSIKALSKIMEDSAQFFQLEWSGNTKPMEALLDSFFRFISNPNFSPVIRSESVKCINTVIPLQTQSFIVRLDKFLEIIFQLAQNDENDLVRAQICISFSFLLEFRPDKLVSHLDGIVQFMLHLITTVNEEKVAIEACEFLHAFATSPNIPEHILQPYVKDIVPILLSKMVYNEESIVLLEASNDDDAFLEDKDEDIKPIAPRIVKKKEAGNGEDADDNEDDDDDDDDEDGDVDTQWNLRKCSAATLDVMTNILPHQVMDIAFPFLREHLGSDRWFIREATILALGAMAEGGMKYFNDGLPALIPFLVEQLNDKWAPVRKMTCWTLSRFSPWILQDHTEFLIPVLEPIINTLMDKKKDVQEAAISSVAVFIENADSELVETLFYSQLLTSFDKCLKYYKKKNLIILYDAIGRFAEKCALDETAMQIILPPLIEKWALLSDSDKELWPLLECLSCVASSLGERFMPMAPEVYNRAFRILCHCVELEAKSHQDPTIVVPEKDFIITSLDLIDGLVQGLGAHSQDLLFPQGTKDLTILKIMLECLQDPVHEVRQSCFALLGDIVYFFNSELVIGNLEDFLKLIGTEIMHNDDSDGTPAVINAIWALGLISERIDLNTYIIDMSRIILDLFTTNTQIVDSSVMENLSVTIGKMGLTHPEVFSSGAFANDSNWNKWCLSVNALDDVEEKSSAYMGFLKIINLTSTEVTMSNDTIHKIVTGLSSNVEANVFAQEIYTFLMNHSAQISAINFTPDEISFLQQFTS

Kap104p, P38217 [6] = molecular target: T2, Kap104p, P38217; experiment: ITC; details: chain shown with the change;; parent: 32 ± 16

MBP–Hrp1p NLS (from UniProt Q99383) R512A; 524RR525/AA
ddG (Kap104p [1]): 0.1 kcal/mol
ratio to parent (Kap104p [1]): 1.4
other: TΔS (Kap104p [1]; parent: 0.09 ± 0.7): 0.06 kcal/mol
other: ΔH (Kap104p [1]; parent: -10.0 ± 0.5): -9.9 kcal/mol
dG (Kap104p [1]; parent: -10.1 ± 0.3): -9.9 kcal/mol

B1: MBP–Nab2p NLS 216KNRR219/AAAA (domain or fragment, S. cerevisiae, UniProt P32505 201-251, looked up)
chain: DNSQRFTQRGGGAVGAAAAGGRGGNRGGRNNNSTRFNPLAKALGMAGESNM
notes: Nab2p NLS, residues 201-251; source: E. coli BL21(DE3), purified (amylose resin, cation exchange)
fold decrease in affinity against wild type (Kap104p [2]): 3 fold
Kd (Kap104p, P38217 [3]): 109 nM

B2: MBP–Nab2p NLS 226RGGRN230 to alanines (domain or fragment, S. cerevisiae, UniProt P32505 201-251, looked up)
chain: DNSQRFTQRGGGAVGKNRRGGRGGNAAAAANNSTRFNPLAKALGMAGESNM
notes: as for B1
binding result (Kap104p [2]): binds
ddG (Kap104p, P38217 [3]): 0.3 kcal/mol
ratio to parent (Kap104p, P38217 [3]): 1.6
Kd (Kap104p, P38217 [3]): 59 nM
other: TΔS (Kap104p, P38217 [3]): -0.2
dG (Kap104p, P38217 [3]): -9.7 kcal/mol
other: ΔH (Kap104p, P38217 [3]): -9.9 kcal/mol

B3: MBP–Nab2p NLS 222RGG224 to alanines (domain or fragment, S. cerevisiae, UniProt P32505 201-251, looked up)
chain: DNSQRFTQRGGGAVGKNRRGGAAANRGGRNNNSTRFNPLAKALGMAGESNM
notes: as for B1
binding result (Kap104p [2]): binds
ddG (Kap104p, P38217 [3]): 0.3 kcal/mol
ratio to parent (Kap104p, P38217 [3]): 1.6
Kd (Kap104p, P38217 [3]): 58 nM
other: TΔS (Kap104p, P38217 [3]): 0.06
dG (Kap104p, P38217 [3]): -9.7 kcal/mol
other: ΔH (Kap104p, P38217 [3]): -9.6 kcal/mol

B4: GST–Tfg2p, full-length (natural protein, S. cerevisiae, UniProt P41896 1-400, looked up)
chain: MSSGSAGAPALSNNSTNSVAKEKSGNISGDEYLSQEEEVFDGNDIENNETKVYEESLDLDLERSNRQVWLVRLPMFLAEKWRDRNNLHGQELGKIRINKDGSKITLLLNENDNDSIPHEYDLELTKKVVENEYVFTEQNLKKYQQRKKELEADPEKQRQAYLKKQEREEELKKKQQQQKRRNNRKKFNHRVMTDRDGRDRYIPYVKTIPKKTAIVGTVCHECQVMPSMNDPNYHKIVEQRRNIVKLNNKERITTLDETVGVTMSHTGMSMRSDNSNFLKVGREKAKSNIKSIRMPKKEILDYLFKLFDEYDYWSLKGLKERTRQPEAHLKECLDKVATLVKKGPYAFKYTLRPEYKKLKEEERKATLGELADEQTGSAGDNAQGDAEADLEDEIEMEDVV
notes: Tfg2p, S. cerevisiae; source: E. coli BL21(DE3), immobilized on glutathione sepharose
binding result (Kap104p [4]): binds

B5: MBP–Nab2p NLS 210GGG212/AAA (protein)
chain: DNSQRFTQRAAAAVGKNRRGGRGGNRGGRNNNSTRFNPLAKALGMAGESNM
ddG (Kap104p [1]): -0.4 kcal/mol
ratio to parent (Kap104p [1]): 0.5
Kd (Kap104p [1]; parent: 37 ± 20): 19 nM
other: TΔS (Kap104p [1]; parent: -1.3 ± 0.6): 0.5 kcal/mol
dG (Kap104p [1]; parent: -10.0 ± 0.3): -10.4 kcal/mol
other: ΔH (Kap104p [1]; parent: -11.3 ± 0.5): -9.8 kcal/mol
Kd (Kap104p [5]): 19 nM

B6: GST–Hrp1p, full-length (natural protein, S. cerevisiae, UniProt Q99383 1-534, looked up)
chain: MSSDEEDFNDIYGDDKPTTTEEVKKEEEQNKAGSGTSQLDQLAALQALSSSLNKLNNPNSNNSSSNNSNQDTSSSKQDGTANDKEGSNEDTKNEKKQESATSANANANASSAGPSGLPWEQLQQTMSQFQQPSSQSPPQQQVTQTKEERSKADLSKESCKMFIGGLNWDTTEDNLREYFGKYGTVTDLKIMKDPATGRSRGFGFLSFEKPSSVDEVVKTQHILDGKVIDPKRAIPRDEQDKTGKIFVGGIGPDVRPKEFEEFFSQWGTIIDAQLMLDKDTGQSRGFGFVTYDSADAVDRVCQNKFIDFKDRKIEIKRAEPRHMQQKSSNNGGNNGGNNMNRRGGNFGNQGDFNQMYQNPMMGGYNPMMNPQAMTDYYQKMQEYYQQMQKQTGMDYTQMYQQQMQQMAMMMPGFAMPPNAMTLNQPQQDSNATQGSPAPSDSDNNKSNDVQTIGNTSNTDSGSPPLNLPNGPKGPSQYNDDHNSGYGYNRDRGDRDRNDRDRDYNHRSGGNHRRNGRGGRGGYNRRNNGYHPYNR
notes: Hrp1p, S. cerevisiae; also called full-length Hrp1p; source: E. coli BL21(DE3), immobilized on glutathione sepharose
binding result (Kap104p [4]): binds

B7: GST–Nab2p, full-length (natural protein, S. cerevisiae, UniProt P32505 1-525, looked up)
chain: MSQEQYTENLKVIVAEKLAGIPNFNEDIKYVAEYIVLLIVNGGTVESVVDELASLFDSVSRDTLANVVQTAFFALEALQQGESAENIVSKIRMMNAQSLGQSDIAQQQQQQQQQQQPDIAQQQPQQQPQQQPQQQPQQQPQQQPQQQPQQQPQQQPQLQPLQPQLGTQNAMQTDAPATPSPISAFSGVVNAAAPPQFAPVDNSQRFTQRGGGAVGKNRRGGRGGNRGGRNNNSTRFNPLAKALGMAGESNMNFTPTKKEGRCRLFPHCPLGRSCPHAHPTKVCNEYPNCPKPPGTCEFLHPNEDEELMKEMERTREEFQKRKADLLAAKRKPVQTGIVLCKFGALCSNPSCPFGHPTPANEDAKVIDLMWCDKNLTCDNPECRKAHSSLSKIKEVKPISQKKAAPPPVEKSLEQCKFGTHCTNKRCKYRHARSHIMCREGANCTRIDCLFGHPINEDCRFGVNCKNIYCLFRHPPGRVLPEKKGAAPNSNVPTNERPFALPENAIIENAPPQTSFTHQEQDTEMN
notes: Nab2p, S. cerevisiae; also called full-length Nab2p; source: E. coli BL21(DE3), immobilized on glutathione sepharose
binding result (Kap104p [4]): binds

B8: MBP–Hrp1p NLS 524RR525/AA (domain or fragment, S. cerevisiae, UniProt Q99383 494-534, looked up)
chain: RDRNDRDRDYNHRSGGNHRRNGRGGRGGYNAANNGYHPYNR
notes: Hrp1p NLS, residues 494-534; source: E. coli BL21(DE3), purified (amylose resin, cation exchange)
KD,mutant/KD,wild type (Kap104p [2]): 1.7
Kd (Kap104p, P38217 [6]): 62 nM
